Source: the supplement of paper PMC10567573

B1: CDC34 (parent)
chain: GGYFKARLKFPIDYPYSPPAFRFL
B2: FAM9B (parent)
chain: EDLTAKRKRMKMDKTCSKTKNKSK
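Also: lentivirally expressed fusions sorted by FACS into six bins by GFP to DsRed ratio, PSI derived from sequencing read proportions per bin multiplied by bin number.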

Variants of: B1
Experiment: protein stability index of a GFP-peptide fusion (GPS, HEK-293T) (PSI 1-6); higher = more stable
Settings: c terminus: a fixed tail appended
Work on L24E yielded a protein stability index of 1.76. L24K showed a protein stability index of 3.77. L24V showed a protein stability index of 3.43. Work on L24A yielded a protein stability index of 3.55. With L24N the protein stability index was 3.21. Variant L24G has a protein stability index of 2.44. Variant L24T has a protein stability index of 3.35. In the case of L24W, the protein stability index is reported as 2.05. Variant L24Y has a protein stability index of 2.4. L24D gave a protein stability index of 2.33. With L24M the protein stability index was 2.76. With L24Q the protein stability index was 2.95. In the case of L24R, the protein stability index is reported as 3.94. L24F gave a protein stability index of 2.89. In the case of R22Y, the protein stability index is reported as 2.7. With F23L the protein stability index was 1.54. For F23E, the protein stability index was 2.19. F23S showed a protein stability index of 2.95. In the case of F23D, the protein stability index is reported as 2.71. Variant F23P has a protein stability index of 3.15. For F23Q, the protein stability index was 1.48. Work on F23G yielded a protein stability index of 1.09. For F23H, the protein stability index was 4.27. Work on F23I yielded a protein stability index of 2.08. Variant F23A has a protein stability index of 2.82. In the case of F23M, the protein stability index is reported as 2.48. With F23T the protein stability index was 2.74. With F23N the protein stability index was 2.95. F23Y showed a protein stability index of 1.26. F23K gave a protein stability index of 2.8. With F23W the protein stability index was 1.43. F23R showed a protein stability index of 2.42. F23V showed a protein stability index of 3.6.

Variants of: B2
Experiment: as above
Settings: c terminus: a fixed tail appended
For D2W, the protein stability index was 3.49. For D2P, the protein stability index was 5.51. For D2Q, the protein stability index was 5.04. Variant D2I has a protein stability index of 4.16. Work on D2T yielded a protein stability index of 4.92. In the case of D2H, the protein stability index is reported as 5.01. Variant D2A has a protein stability index of 5.42. D2Y gave a protein stability index of 3.69. For D2S, the protein stability index was 4.63. For D2F, the protein stability index was 3.65. D2C gave a protein stability index of 4.11. In the case of D2R, the protein stability index is reported as 4.43. With D2M the protein stability index was 4.44. D2V gave a protein stability index of 4.86. Variant D2L has a protein stability index of 4.08. Work on D2K yielded a protein stability index of 4.9. In the case of D2E, the protein stability index is reported as 5.3. For D2N, the protein stability index was 4.63. Work on D2G yielded a protein stability index of 5.21. For E1T, the protein stability index was 4.91. E1H showed a protein stability index of 4.87. E1R showed a protein stability index of 4.64. E1Y gave a protein stability index of 3.72. Variant E1K has a protein stability index of 4.89. With E1A the protein stability index was 4.77. With E1D the protein stability index was 5.32. For E1C, the protein stability index was 3.08. With E1P the protein stability index was 4.9. Work on E1M yielded a protein stability index of 4.15. In the case of E1L, the protein stability index is reported as 4.38. In the case of E1Q, the protein stability index is reported as 4.99. E1V showed a protein stability index of 4.96. Variant E1I has a protein stability index of 4.08. Work on E1W yielded a protein stability index of 3.89. For E1S, the protein stability index was 5.16. E1N showed a protein stability index of 5.29. Variant E1F has a protein stability index of 4.53. With E1G the protein stability index was 4.86. For A5S, the protein stability index was 5.5. In the case of A5L, the protein stability index is reported as 5.37. A5C showed a protein stability index of 4.05. For A5R, the protein stability index was 5.23. Variant A5H has a protein stability index of 5.05. Variant A5G has a protein stability index of 5.47. A5D showed a protein stability index of 5.08. With A5P the protein stability index was 4.92. Work on A5M yielded a protein stability index of 5.2. A5T gave a protein stability index of 4.51. A5Y gave a protein stability index of 5.13. For A5K, the protein stability index was 4.15. A5Q showed a protein stability index of 4.71. Work on A5N yielded a protein stability index of 4.33. A5F showed a protein stability index of 4.42. A5W showed a protein stability index of 5.3. Work on R7Q yielded a protein stability index of 5.32. Work on R7P yielded a protein stability index of 5.27. With R7V the protein stability index was 4.87. R7A showed a protein stability index of 5.09. For R7M, the protein stability index was 4.75. For R7S, the protein stability index was 5.3. In the case of R7T, the protein stability index is reported as 5.46. R7G showed a protein stability index of 5.54. R7W showed a protein stability index of 4.33. In the case of R7I, the protein stability index is reported as 4.82. R7C showed a protein stability index of 5.26. With R7Y the protein stability index was 5.11. Variant R7H has a protein stability index of 4.95. Work on R7F yielded a protein stability index of 4.69. Variant R7N has a protein stability index of 4.93. For R7L, the protein stability index was 4.87. R7E showed a protein stability index of 5.45. R7D gave a protein stability index of 5.41. Work on R7K yielded a protein stability index of 5.16. Work on K8A yielded a protein stability index of 4.94. K8C gave a protein stability index of 5.09. With K8D the protein stability index was 5.29. With K8F the protein stability index was 4.58. K8E gave a protein stability index of 4.99. K6M gave a protein stability index of 4.67. For K6F, the protein stability index was 4.42. In the case of K6C, the protein stability index is reported as 4.78. For K6P, the protein stability index was 5.59. With K6N the protein stability index was 4.85. In the case of K6H, the protein stability index is reported as 5.37. Variant K6E has a protein stability index of 5.7. For K6T, the protein stability index was 4.68. Variant K6G has a protein stability index of 5.69. With K6V the protein stability index was 4.65. Work on K6Y yielded a protein stability index of 5.19. For K6A, the protein stability index was 4.87. K6S gave a protein stability index of 5.26. For K6R, the protein stability index was 5.33. K6W showed a protein stability index of 4.29. With K6Q the protein stability index was 5.12. For K6D, the protein stability index was 5.33. For K6L, the protein stability index was 4.85. Work on K6I yielded a protein stability index of 5.1. With T4C the protein stability index was 4.52. With T4E the protein stability index was 5. Work on T4S yielded a protein stability index of 4.74. For T4I, the protein stability index was 4.58. In the case of T4M, the protein stability index is reported as 4.45. Variant T4V has a protein stability index of 5.02. For T4W, the protein stability index was 4.38. T4P gave a protein stability index of 4.96. With T4R the protein stability index was 4.64. T4K gave a protein stability index of 5.54. For T4G, the protein stability index was 5.14. Work on T4F yielded a protein stability index of 4.72. T4A showed a protein stability index of 5.25. In the case of T4N, the protein stability index is reported as 4.8. T4Q gave a protein stability index of 4.7. For T4L, the protein stability index was 4.6. For T4Y, the protein stability index was 4.21. For T4H, the protein stability index was 5.29. T4D showed a protein stability index of 5.5. For L3S, the protein stability index was 4.99. For L3R, the protein stability index was 5.17. For L3G, the protein stability index was 5.66. For L3D, the protein stability index was 5.5. With L3H the protein stability index was 5.43. L3Q gave a protein stability index of 5.51. Work on L3M yielded a protein stability index of 5.13. Variant L3W has a protein stability index of 4.6. Variant L3A has a protein stability index of 4.91. L3F gave a protein stability index of 4.98. Work on L3E yielded a protein stability index of 5.77. Work on L3K yielded a protein stability index of 5.4. Work on L3P yielded a protein stability index of 5.39. Work on L3V yielded a protein stability index of 5.63. In the case of L3Y, the protein stability index is reported as 5.23. With L3C the protein stability index was 5.09. L3N showed a protein stability index of 5.15. In the case of L3T, the protein stability index is reported as 5.33.
